16 molecules from patent US20170129961A1 (Amgen, published 2017) can be followed below.

The labels stand for the following.
B1: CD70-52 (scFv)
scFv: QVQLQESGPGLVKPSETLSLTCTVSGGSVSTDGYYWSWIRQPPGKGLEWIGYIYYSGSTNYNPSLKSRVTISVDTSKNQFSLKLSSVTAADTAVYYCARGIGLGFEYWGQGTLVTVSSGGGGSGGGGSGGGGSSYVLTQLSSVSVAPGQTARITCGGNNIGSKSVHWYQQKPGQAPVLVVYDDSDRPSGIPERFSGSNSGNTATLTISRVEAGDEADYYCQVWDRSSDQDVVFGGGTKLTVL
notes: As m32
B2: CD70-69 (scFv)
scFv: B1 scFv with G46C, S85I, G235C
notes: As m32
B3: CD70-51 (scFv)
scFv: B1 scFv with S141T, Y218F
notes: As m32
B4: CD70-56 (scFv)
scFv: QVQLVESGGGVVQPGRSLRLSCAASGFTFSSYGMHWVRQAPGKGLEWVAVISYDGSNKYYADSVKGRFTISRDNSKNTLYLQMNSLRAEDTAVYYCARGRYYGSGSYNYGMDVWGQGTTVTVSSGGGGSGGGGSGGGGSDIQMTQSPSSLSASVGDRVTITCRASQSIFDYLNWYQQKPGKAPKLLIYAASSLQSGVPSRFSGSGFGTDFTLTISSLQPEDFATYYCQQSYSTPLTFGGGTKLEIK
notes: As m32
B5: CD70-71 (scFv)
scFv: B4 scFv with G44C, G239C
notes: As m32
B6: CD70-58 (scFv)
scFv: QVQLQESGPGLVKPSQTLSLTCTVSGGSISSSSYYWGWIRQPPGKGLEWIGSIYHSGGTYFNPSLKSRVTISVDTSKNQFSLKLSSVTAADTAVYYCARHYEILTGYYPDVFDIWGQGTMVTVSSGGGGSGGGGSGGGGSDIQMTQSPSSLSASVGDRVTITCRASQSISSYLNWYQQKPGKAPKLLIYAASNLQSGVSSRFSGSGSGTDFTLTISSLQPEDFATYYCQQSFSSPRTFGQGTKVEIK
B7: CD70-48 (scFv)
scFv: EVQLLESGGGLVQPGGSLRLSCAASGFTFSSYAMSWVRQAPGKGLEWVSVISDSGGITDFADSVKGRFTISRDNSRNTLYLQMNSLRAEDTAVYFCARHDYSNYFFFDYWGQGTLVTVSSGGGGSGGGGSGGGGSDIQMTQSPSSLSASVGDRVTITCRASQGISNYLAWYQQKPGKVPKLLIYAASILQSGVPSKFSGSGSGTDFTLTISSLQPEDFAIYYCQQYFAYPITFGQGTRLEIK
notes: As m32
B8: CD70-68 (scFv)
scFv: B7 scFv with G44C, Q235C
notes: As m32
B9: CD70-63 (scFv)
scFv: EVQLVESGGGLVKPGGSLRLSCAASGITFSTYTMNWVRQAPGKGLEWVSSISSSSGYIYYADSVKGRFTISRDNAKNSLYLQMNSLRAEDTAVYYCARGDYSNYLYFDLWGRGTLVTVSSGGGGSGGGGSGGGGSEIVLTQSPGTLSLSPGERATLSCRASQSFRSSYLAWYQQKPGQAPRLLIHGASSRATGIPDRFSGSGSGTDFTLTISRLEPEDFAVYYCQLYGSLPITFGQGTRLEIK
B10: CD70-62 (scFv)
scFv: EVQLVESGGGLVKPGGSLRLSCAASGFTFSSYSMNWVRQAPGKGLEWVSYISSSGGYIYYADSVKGRFTISRDNAKNSLYLQMNSLRAEDAAVYYCSRGDYSNYAYFDYWGQGTLVTVSSGGGGSGGGGSGGGGSDIQMTQSPSSLSASVGDRVTITCRASQGISNYLAWYQQKPGKVPKLLIYAASTLQSGVPSRFSGSGSGTDFTLTISSLQAEDVAVYYCQQYYSTPLTFGGGTKVEIK
notes: As m32
B11: CD70-73 (scFv)
scFv: B10 scFv with G44C, G235C
notes: As m32
B12: CD70-61 (scFv)
scFv: EVQLLESGGGLVQPGGSLRLSCAASGFTFSSYAMSWVRQAPGKGLEWVSVISDSGGITDFADSVKGRFTISRDNSRNTLYLQMNSLRAEDTAVYFCARHDYSNYFFFDYWGQGTLVTVSSGGGGSGGGGSGGGGSDIQMTQSPSSLSASVGDRITITCRASQSISNYLNWYQQKPGKAPKLLISAASSLQSGVPSRFSGSGSGTDFTLTISSLQPEDFATYYCQQSYIIPPTFGQGTKVDIK
notes: As m32
B13: CD70-67 (scFv)
scFv: B12 scFv with G44C, T69I, I154V, S163D, P175S, K180E, S184Y, I229S, Q235C, D240E
notes: As m32
B14: CD70-59 (scFv)
scFv: QVQLQQWGAGLLKPSETLSLTCAVYDGSVSGFYWSWIRQPPGKGLEWIGEIDHSGSTNYNPSLKSRVTISVDTSKNQFSLKLSSVTAADSAVYYCARNGYSGYLFDYWGQGTLVTVSSGGGGSGGGGSGGGGSDIQMTQSPSSLSASVGDRVTITCRASQIISSYLNWYQQKPGKAPKVLIYGASSMQSGVPSRFSGSGYGTDFTLTISSLQPEDFATYYCQQSYSIPRTFGQGTKLEIK
B15: CD70-57 (scFv)
scFv: QVQLVESGGGVVQPGRSLRLSCAASGFTFSSYGMHWVRQAPGKGLEWVAVIWYDGSSEYYADSVKGRFTISRDNSKNTLYLQMNSLRAEDTAVYYCARDNSYNYYGMDVWGQGTTVTVSSGGGGSGGGGSGGGGSQSVLTQPPSVSGAPGQRVTISCTGSSSNIGAAYDVHWYQQFPGTAPKLLIYVNSHRPPGVPDRFSGSKSGTSASLAITGLQAEDEADYYCLSYDNSLSGSVFGGGTKLTVL
B16: CD70-64 (scFv)
scFv: EVQLLESGGGLVQPGGSLRLSCAASGFTFSVYAMSWVRQAPGKCLEWVSTISDSGGSTFYADSVKGRFTISRDNSKNTLYLQMNRLRAEDTAVYYCARHDYSNYAYFDYWGQGTLVTVSSGGGGSGGGGSGGGGSEIVLTQSPGTLSLSPGERATLSCRASQSVRSSYLAWYQQKPGQAPRLLIYGASSRATGIPDRFSGSGSGTDFTLTISRLEPEDFAVYYCQQYGDLPFTFGCGTKVEIK
notes: As m32

Positions count from the first letter of the chain named.

The target in one assay is T1, human CD70 (human, UniProt P32970 1-193).
T1 construct: also called hu CD70; CD27L
T1 sequence: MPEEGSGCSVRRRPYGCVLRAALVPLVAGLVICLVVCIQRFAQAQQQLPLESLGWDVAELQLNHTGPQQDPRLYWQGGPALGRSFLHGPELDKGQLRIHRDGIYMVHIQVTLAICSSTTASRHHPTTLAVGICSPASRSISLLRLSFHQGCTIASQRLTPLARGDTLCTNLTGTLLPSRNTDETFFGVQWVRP
Put plainly: FACS on CHO cells, periplasmic scFv.
Procedure: (§1) All antibodies were diluted in PBS/1.5% FCS. As negative control, cells were incubated with PBS/2% FCS instead of the periplasmic extract. The samples were measured by flow cytometry.
As to B1, the binding result was “binds”.
On the same count and under the same terms, the same measure for B2: “binds”.
Take B3: the binding result is “binds”.
Still for that read-out and setting: next, B4: “binds”; B5: “binds”.
On the same count and under the same terms, next, B6: “binds”.
On the same count and under the same terms, the same measure for B7: “binds”; for B8: “binds”.
Consider B9, for which the binding result was “binds”.
The same measure, in the same setting: next, B10: “binds”.
The same measure, in the same setting: the same measure for B11: “binds”; for B12: “binds”.
Same read-out and setting: the same measure for B13: “binds”.
As for B14, the binding result was “binds”.
Take B15: the binding result was “binds”.
Same read-out and setting: the same measure for B16: “binds”.

A further assay has as its target T2, full-length mouse CD70 with C-terminal V5 tag (mouse, UniProt O55237 1-195).
T2 construct: On transfected CHO cells; also called murine CD70
T2 sequence: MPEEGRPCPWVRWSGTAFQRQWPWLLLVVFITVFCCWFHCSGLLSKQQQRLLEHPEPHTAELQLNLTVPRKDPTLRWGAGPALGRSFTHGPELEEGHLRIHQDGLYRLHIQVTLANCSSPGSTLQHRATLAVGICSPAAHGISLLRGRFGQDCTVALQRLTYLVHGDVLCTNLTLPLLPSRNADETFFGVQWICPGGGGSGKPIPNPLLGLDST
Put plainly: FACS on CHO cells, periplasmic scFv.
Procedure: as §1
B1: the binding result is on record as “no binding”.
As to B2, the binding result is on record as “no binding”.
On the same count and under the same terms, the same measure for B3: “no binding”.
Still for that read-out and setting: the same measure for B4: “no binding”; for B5: “no binding”.
Consider B6, for which the binding result is reported as “no binding”.
Same read-out and setting: the same measure for B7: “no binding”; for B8: “no binding”; for B9: “no binding”.
Take B10: the binding result is on record as “no binding”.
Still for that read-out and setting: next, B11: “no binding”.
On the same count and under the same terms, the same measure for B12: “no binding”; for B13: “no binding”.
As to B14, the binding result is on record as “no binding”.
In the case of B15, the binding result is “no binding”.
Still for that read-out and setting: the same measure for B16: “no binding”.

A further assay deals with T3, full length human CD70 with C-terminal V5 tag (human, UniProt P32970 1-193).
T3 construct: On transfected CHO cells; also called huCD70-V5
T3 sequence: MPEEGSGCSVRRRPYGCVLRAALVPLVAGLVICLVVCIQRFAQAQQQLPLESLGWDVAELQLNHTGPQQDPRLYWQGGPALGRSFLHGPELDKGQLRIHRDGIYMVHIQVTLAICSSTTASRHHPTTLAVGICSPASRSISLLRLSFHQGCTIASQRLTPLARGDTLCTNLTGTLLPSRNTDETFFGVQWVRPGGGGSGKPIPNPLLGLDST
Put plainly: FACS on CHO cells, periplasmic scFv.
Procedure: as §1
As for B4, the binding result was “no binding”.
Regarding B5, the binding result is “no binding”.
